Test results as given in patent US10078082B2, “Detection of free and protein-bound non-human gal-alpha(1-3)-gal epitope” (National University of Ireland, Galway, priority 2012, dated 2018).
“And” between values parts separate entries of the source, which are not always exact repeats. Equal values may be shown once.

Tests used:
[1] = Thermal denaturation monitored by far UV CD ellipticity; assay type: physicochemical; details: for Change in cooperativity (HD) / Stabilisation (increase in Tm): in the presence of 4 mM Galα(1,3)Galβ1-OMe, 208 nm
Protocol: (§1) Two types of experiments were performed: firstly, the near UV circular dichroism (CD) spectra of the scFvs in the absence and presence of 4 mM of both disaccharides have been compared. Secondly, the effect of the disaccharides on the thermal stability of the scFvs has been studied.
Samples were diluted in NaPi (10 mM)-NaCl (150 mM) pH 7.2 and either concentrated by ultrafiltration twice (for small amounts) or exhaustively dialyzed. CD spectra were acquired at 20° C. in a J-810 spectropolarimeter, equipped with a Peltier temperature control system, using a bandwidth of 1 nm, a scan rate of 20 nm/min and a response time of 4 s, collecting data every 0.2 nm and 3 accumulations for each spectrum. Near-UV spectra were registered at around 1.0 mg ml^−1 protein concentration in 1-cm path-length cells while far-UV spectra were recorded in 0.1 cm path-length quartz cells at a protein concentration of around 0.2 mg ml^−1. For all CD spectra, the corresponding buffer baseline was subtracted. […] Ellipticity changes were collected every 0.2° C. and spectra were collected every 10° C. The thermal denaturation profiles were fitted to a sigmoidal function using the equation:—
where Θ(T) represents the ellipticity at temperature T (Kelvin), ΘN the ellipticity of the native protein, n the number of transitions, ΔΘ1 the ellipticity increment of transition i, R the gas constant and Tmi and HDi the temperature at the transition midpoint (melting temperature) and the parameter which describes the cooperativity (slope) of the corresponding transition, respectively.
In the second set of experiments, the thermal stability of the scFvs in the absence and presence of the disaccharides was investigated. With this type of experiment, we were able to get: 1) the far UV CD spectra at increasing temperatures, which gave information on changes in the secondary structure of the proteins upon heating and 2) the profile of the change in ellipticity at a certain wavelength, also with increasing temperatures, that allowed the calculation of the temperature of transition (Tm). Direct comparison of the Tm in the absence and presence of sugar provided information about the effect of the sugar on the scFvs, a thermal stabilisation (i.e. an increase in the Tm in the presence of the sugar) being indicative of interaction.

[2] = scFv-based competitive ELISA, free Gal-α-(1→3)-Gal as standard, immobilized Gal-α-(1→3)-Gal-BSA; assay type: binding; details: for ED50: free Gal-α-(1→3)-Gal disaccharide standard, plates coated with Gal-α-(1→3)-Gal-BSA 10 μg/ml, FIG. 6
Protocol: FIG. 6: Standard curves for competitive ELISA given by scFv clones G12, A4, and A11. Plates were coated with immobilized Gal-α-(1→3)-Gal-BSA [10 μg/ml] and incubated with 2.5 μg/ml of the scFvs in the presence of an increasing concentrations of free Gal-α-(1→3)-Gal. The error bars indicate the standard error of the mean of triplicate determinations. Each scFv was evaluated in a competitive ELISA format using free Gal-α-(1,3)-Gal as standard. Microtitre plate wells were coated and blocked as previously described. Standard solutions were prepared in PBS (pH 7.2), ranging in concentration from 2 μg/ml (5.84 μM) to 20 mg/ml (58.4 mM). For the assay, 50 μl of each standard and buffer blank were added to designated wells in triplicate, followed by 50 μl of a sub-saturating concentration (1 μg/ml) of the appropriate scFv, giving a final standard concentration in the assay of 1 μg/ml (2.92 μM) to 10 mg/ml (29.2 mM). The plate was incubated for 1 hour at 37° C. with shaking After washing, bound scFv was detected as previously described. The ratios of the OD for each standard versus the OD given by the blank (B/Bo) were plotted versus standard concentration and standard curve plotted using SigmaPlot (v11, Systat Software Inc). The detection limits were determined as the concentration corresponding to the mean response for zero standard minus three times the standard deviation (SD). Inhibition of scFv by a panel of free sugars. scFv binding to Gal-α-(1→3)-Gal-BSA was determined against a panel of 21 free form sugars; D-Cellibiose, Melibiose, D-Raffinose, Lactulose, Palatinose, β-Gentibiose, D+ Trehalose, D+ Turanose, L− Fructose, D+ Glucose, Sucrose, Galacto-N-biose, 4β-Galactobiose, gal-α(1-3)-gal-β-(1-4)-gal, gal-α(1-3)-gal-β-(1-4)-glc, gal-α(1-3)-gal-β-(1-4)-gal-all-3)-gal, Laminarbiose, β1-4-D-Xylobiose, N-Acetyl-D-glucoseamine (GlcNAc), Galactose, N-Acetyl-D-lactosamine (LacNAc), (sourced from Sigma Aldrich and Dextra, UK). Inhibitions were performed by serial dilutions of free sugars and a sub-saturating concentration scFv added to each dilution and pre-incubated for 60 minutes at 37° C., prior to performing ELISA against Gal-α-(1→3)-Gal-BSA as used throughout. The percent binding of the scFv was plotted against the […], and the 50% effective dose determined (ED50; dose of free sugar causing 50% displacement of the scFv).

[3] = Near UV circular dichroism interaction study with disaccharides; assay type: binding; details: pH 7.2, 20° C.
Protocol: The scFvs A4, A11 and G12 were used to check their interaction with Galα(1,3)Galβ1-OMe (Carbosynth) and with melibiose, the latter as negative control.
as §1
Samples were diluted in NaPi (10 mM)-NaCl (150 mM) pH 7.2 and either concentrated by ultrafiltration twice (for small amounts) or exhaustively dialyzed. CD spectra were acquired at 20° C. in a J-810 spectropolarimeter, equipped with a Peltier temperature control system, using a bandwidth of 1 nm, a scan rate of 20 nm/min and a response time of 4 s, collecting data every 0.2 nm and 3 accumulations for each spectrum. Near-UV spectra were registered at around 1.0 mg ml^−1 protein concentration in 1-cm path-length cells while far-UV spectra were recorded in 0.1 cm path-length quartz cells at a protein concentration of around 0.2 mg ml^−1. For all CD spectra, the corresponding buffer baseline was subtracted. Thermal stability was evaluated by measuring ellipticity changes at 208 nm while increasing temperature from 20 to 90° C., with a constant rate of 40° C./h. Ellipticity changes were collected every 0.2° C. and spectra were collected every 10° C. The thermal denaturation profiles were fitted to a sigmoidal function using the equation:—

[4] = NGC microarray specificity analysis (over 50 structures); assay type: binding; details: FIG. 8
Text: FIG. 8: Comparison of the specificity of selected scFv fragments A4, A11 and G12 against a panel of related NGCs compared directly to the specificity binding pattern of the lectin GS-1-B4, considered as highly specific for α-Gal residues.
The spectacular specificity of the scFvs has also been determined by analysis on an NGC microarray containing over 50 different structures. […] ScFv-based competitive ELISA. Competitive ELISAs were established with each of the three scFvs examined using as standard the free Gal-α-(1→3)-Gal disaccharide within the concentration range 0.001 to 10000 μg/ml (2.93 nM to 29.3 mM). […] A panel of 21 related sugars were tested in the scFv-based competitive assays (Table 1). […] All three scFvs were more reactive to the disaccharide than Gal-α-(1,3)-Gal-containing trisaccharides, as shown by lower inhibitory activity of the trisaccharides and supporting the results obtained in the direct ELISA.

[5] = +4 mM Galα(1,3)Galβ1-OMe, λ 208
[6] = 4 mM melibiose (negative control)
[7] = +4 mM Galα(1,3)Galβ1-OMe, λ 218

Molecule	HD [1, 5]	Tm [1, 5]	HD ([1]; Pure scFv, λ 208)	Tm ([1]; Pure scFv, λ 208)	Change in cooperativity (HD) [1]	Change of near UV CD spectrum ([3]; 4 mM Galα(1,3)Galβ1-OMe)	Change of near UV CD spectrum [3, 6]	Specificity for the Gal-α-(1→3)-Gal epitope compared with GS-1-B4 [4]	Stabilisation (increase in Tm) [1]	further results
scFv A4: chicken anti-Gal-α-(1→3)-Gal single chain antibody fragment, Seq Id No. 2 (protein, Synthetic protein sequence for scFv-A4 antibody fragment for detecting non-human Gal-alpha(1-3)-Gal) scFv: QAALTQPSSVSTNPGGTVKITCSGGNGNYGWYQQKSPGSAPVTVIYSNNKRPSDIPSRFSGSKSGSTATLTITGVQVDDEAVYFCGAYDNTYVGVFGAGTTLTVLGQSSRSSSGGGSSGGGGSAVTLDESGGGLQTPGGGLSLVCKASGFTFSSYSMQWVRQTPGKGLEFVAGIGYSDSYTYFGPAVKGRATISRDNGQNTVRLQLNNLRAEDTATYYCARSADTIYGCTHPWCSADNIDAWGHGTEVIVSSTSGQAGQ	52 ± 3 kcal/mol	74.8 ± 0.3 °C	57 ± 3 kcal/mol	64.6 ± 0.2 °C	~4.7 kcal/mol	molar ellipticity per residue in general decreased	remained unchanged	much higher specificity	–	ED50, composite standard curve ([2]; composite curve from 9 independent runs, FIG. 7, listed as A4): 327 μg/ml and 0.95 mM; ED50 ([2]; listed as A4): 311 μg/ml and 0.91 mM
scFv A11: chicken anti-Gal-α-(1→3)-Gal single chain antibody fragment, Seq Id No. 4; clone D9 has the same sequence (protein, Synthetic protein sequence forscFv-A11 antibody fragment for detecting non-human Gal-alpha(1-3)-Gal) scFv: QAALTQPSSVSANPGETVKITCSGGGSYGGSYYYGWYQQKSPGSAPVTVIYSNDNRPSDIPSRFSGSTSGSTSTLTITGVQVDDEAVYYCGTYDSSYVGIFGAGTALTVLGQSSRSSGGGSSGGGGSAVTLDESGGGLQTPGGGLSLVCKASGFTFSSYSMQWVRQTPGKGLEFVAGIGYSDSYTYFGPAVKGRATISRDNGQNTVRLQLNNLRAEDTATYYCARSADTIYGCTHPWCSADNIDAWGHGTEVIVSSTSGQAGQ	95 ± 6 kcal/mol	69.0 ± 0.2 °C	134 ± 7 kcal/mol	61.3 ± 0.1 °C	~38.5 kcal/mol	No significant changes were observed	No significant changes were observed	much higher specificity	7.7 °C	HD ([1]; +4 mM melibiose, λ 208): 141 ± 7 kcal/mol; Tm ([1]; +4 mM melibiose, λ 208): 61.1 ± 0.1 °C; ED50 ([2]; listed as A11): 1225 μg/ml and 3.58 mM
scFv G12: chicken anti-Gal-α-(1→3)-Gal single chain antibody fragment, Seq Id No. 3; clone F1 has the same sequence (protein, Synthetic protein sequence for scFv-G12 antibody fragment for detecting non-human Gal-alpha(1-3)-Gal) scFv: QAALTQPSSVSANPGETVKITCSGGSYHYGWYQQKSPGSAPVTVIYSNNQRPSGIPSRFSGSTSDSTGTLTITGVQADDEAVYFCGSYDSSNTYAGIFGAGTTLTVLGQSSRSSSGGGSSGGGGSAVTLDESGGGFQTPGGALSLVCKASGFTFSSYSMQWVRQAPGKGLEFVAGIGNSDRYTYFGPAVKGRATISRDNGQSTLRLQLNNLRAEDTATYFCARSGDSGNGCTHPWCSADNINAWGHGTEVIVSSTSGQAGQ	71 ± 5 kcal/mol	73.5 ± 0.3 °C	64 ± 4 kcal/mol	64.7 ± 0.2 °C	+6.8 Kcal/mol	a clear change was detected	did not cause any significant changes	much higher specificity	8.8 °C	HD [1, 7]: 137 ± 24 kcal/mol; Tm [1, 7]: 74.3 ± 0.4 °C; HD ([1]; +4 mM melibiose, λ 218): 116 ± 16 kcal/mol; Tm ([1]; +4 mM melibiose, λ 218): 66.5 ± 0.3 °C; HD ([1]; Pure scFv, λ 218): 116 ± 21 kcal/mol; Tm ([1]; Pure scFv, λ 218): 66.4 ± 0.4 °C; ED50 ([2]; listed as G12): 158 μg/ml and 0.46 mM
